Test results as given in patent publication US20230055005A1 (ROCHE DIAGNOSTICS OPERATIONS, published 2023).
Residue numbers refer to the chain shown, from its start. Bridge positions count the residues as written; N and C are the ends. Square brackets hold non-standard residues; d marks the D form. Primed or numbered codes have the meaning given here. Glu(Bi-PEG)″ = Nδ-(N-biotinyl-3-(2-(2-(3-aminopropyloxy)-ethoxy)-ethoxypropyl)-L-glutamine, biotin-PEG linker residue; Glu(Bi-PEG) = N-terminal added Glu carrying a biotin-linker; Glu(Bi-PEG)(3) = N-terminal added Glu biotin-linker residue; Gla = N[C@@H](CC(C(=O)O)C(=O)O)C(=O)O

T1: Bi-SEQ ID NO: 1, *H**Glu(Bi-PEG)*NLERECVEETCSYEEA*NH2 (disulfide 6-11 (inferred))
T1 construct: Synthetic peptide
T1 peptide: {Glu(Bi-PEG)}-NLERECVEETCSYEEA-NH2

T2: Bi-SEQ ID NO: 4, *H**Glu(Bi-PEG)*…laTCSYEEA*NH2 (disulfide 6-11)
T2 construct: Synthetic peptide; 12-27 of mature prothrombin with Gla at 20
T2 peptide: {Glu(Bi-PEG)(3)}-NLERECVE[Gla]TCSYEEA-NH2

T3: Bi-SEQ ID NO: 3, *H**Glu(Bi-PEG)*…laEA*NH2 (disulfide 6-11; not fully specified)
T3 construct: Synthetic peptide; 12-27 of mature prothrombin with Gla at 25
T3 peptide: {Glu(Bi-PEG)″}-NLERECVEETCSY[Gla]EA-NH2

B1: monoclonal anti-PIVKA-II antibody 7A10 (antibody, V domains shown)
VH: QSLEESGGRLVTPGTPLTLTCTVSGIDLSTYAMGWVRQAPGKGLEYIGIIRSSGRTYYASWAKGRFTVSKTSSTTVDLSMTSPTTEDTATYYCYRNVSLWGQGTLVSVSS
VL: DVVMTQTPSSVEAAVGGTVTIKCQASQSIGNNLAWYQQKPGQRPNLLIYSASTLASGVPSRFRGSGSGTEFTLTISGVQCDDAATYYCQSYAGVSESVFWYSFGGGTGVVVK
notes: Recombinant rabbit IgG from B-cell cloning, expressed in HEK cells
B2: monoclonal anti-PIVKA-II antibody 9A6 (antibody, V domains shown)
VH: QSVEESGGRLITPGTPLTLTCTVSGFDLSRYAVGWVRQAPGKGLEYIGLIVSDGRTYYASWAKGRFTVSKTSSTTVDLKMTSPTAGDTATYYCYRNVSLWGQGTLVSVSS
VL: DVVMTQTPSSVEAAVGGTVTIKCQASQSIGSNLAWYQQKPGQPPKLLIYSASTLASGVPSRFSGSGSGTEFTLTFSGVQCGDAATYFCQSYAGVSANIFYYSFGGGTEVVVM
notes: as for B1
B3: monoclonal anti-PIVKA-II antibody 13H7 (antibody, V domains shown)
VH: B2 VH with I11V, G14E, V33M, V68I, T81A, A85T, G86E, S110E
VL: B2 VL with P59S, S63K, F75I, G77D, V78L, Q79E, G81A, F87Y, V94I, S102A
notes: as for B1
B4: monoclonal anti-PIVKA-II antibody 4E8 (antibody, V domains shown)
VH: B2 VH with I11V, V51T, S60N, A85T, G86E
VL: B2 VL with S9A, P40S, S56P, P59S, S76T
notes: as for B1

Molecular target: Bi-SEQ ID NO: 2, *H**Glu(Bi-PEG)*NLERECVGlaETCSYEEA*NH2
Experiment: ECL assay (Elecsys 2010), ruthenylated antibody and biotinylated peptide, streptavidin beads

First: B1
Second: B2
The reactivity (signal normalized to Bi-SEQ ID NO:1) of the first is lower: 4% for the first, 5% for the second.

B3 and B4 are the same in reactivity (signal normalized to Bi-SEQ ID NO:1): 5% for the first, 5% for the second.

Molecular target: T1, Bi-SEQ ID NO: 1, …
Experiment: as above
Procedure: (§1) An Elecsys 2010 immunoanalyzer was used to determine the reactivity of selected anti-PIVKA-II antibodies with the above peptide as follows:
(§2) 50 μL of ruthenylated anti-PIVKA-II antibody (300 ng/mL in assay buffer—s. example 2.4) were reacted with 50 μL of biotinylated peptide (2.5 ng/mL in assay buffer) and 70 μL assay-buffer in a first step, and incubated at 37° C. for 9 min. After addition of 30 μL streptavidin coated paramagnetic Elecsys® beads (0.7 mg/mL; see example 2.4) and a second incubation step (37° C., 9 min), the reaction mixture was aspirated into the measuring cell where the microparticles are magnetically captured onto the surface of the measuring-electrode. Unbound substances are removed with ProCell system-buffer (Roche Diagnostics GmbH, Germany). Application of a voltage to the electrode then induces electrochemiluminescense-based emission of light which is measured by a photomultiplier.

B1 and B2 are the same in “reactivity (signal normalized to Bi-SEQ ID NO:1)” value: 100% for the first, 100% for the second.

B3 and B4 are the same in “reactivity (signal normalized to Bi-SEQ ID NO:1)” value: 100% for the first, 100% for the second.

Molecular target: T2, Bi-SEQ ID NO: 4, …
Experiment: as above
Procedure: as §1, §2

Going from B1 to B2, the “reactivity (signal normalized to Bi-SEQ ID NO:1)” value rises from 68% to 78%.

Compared with B3, B4 is higher in “reactivity (signal normalized to Bi-SEQ ID NO:1)” value: 68% for the first, 76% for the second.

Molecular target: T3, Bi-SEQ ID NO: 3, …
Experiment: as above
Procedure: as §1, §2

Going from B1 to B2, the “reactivity (signal normalized to Bi-SEQ ID NO:1)” value rises from 105% to 107%.

Compared with B3, B4 is higher in “reactivity (signal normalized to Bi-SEQ ID NO:1)” value: 107% for the first, 108% for the second.
